What was measured:
[1] = target: Cell-associated proTGFβ1 complexes (hGARP-proTGFβ1 and hLRRC33-proTGFβ1); test: BLI (Octet)
[2] = target: Matrix-associated proTGFβ1 complexes (hLTBP1-proTGFβ1 and hLTBP3-proTGFβ1); test: BLI (Octet)
[3] = target: Cell-associated proTGFβ1 complexes (hGARP-proTGFβ1 and hLRRC33-proTGFβ1); test: MSD-SET, hIgG4
[4] = target: Matrix-associated proTGFβ1 complexes (hLTBP1-proTGFβ1 and hLTBP3-proTGFβ1); test: MSD-SET, hIgG4
[5] = test system: matrix-associated vs cell-associated proTGFβ1 complexes; test: MSD-SET: fold bias, cell average over matrix average; format: binding, human; settings: ratio of average KD
Source text: Column (A) of the table lists monoclonal antibodies with discrete amino acid sequences. […] Columns (B), (D), (E) and (F) provide affinities of each of the listed antibodies, measured in KD. […] Average KD values of (B) and (C) are shown in the corresponding column (D), which collectively represents affinities of the antibodies to ECM- or matrix-associated proTGFβ1 complexes. Similarly, Average KD values of (E) and (F) are shown in the corresponding column (G), which collectively represents affinities of the antibodies to cell-surface or cell-associated proTGFβ1 complexes. Finally, relative ratios between the average KD values from columns (D) and (G) are expressed as “fold bias” in column (H). Thus, the greater the number of column (H) is, the greater bias exists for the particular antibody, when comparing binding preferences of the antibody for matrix-associated complexes and cell-surface complexes. This is one way of quantitatively representing and comparing inherent bias of antibodies to their target complexes. Such analyses may be useful in guiding the selection process for a candidate antibody for particular therapeutic use.
Solution equilibrium titration (“SET”) is an assay whereby binding between two molecules (such as an antigen and an antibody that binds the antigen) can be measured at equilibrium in a solution. […]

Molecule	Cell AVRG (average KD, hGARP and hLRRC33 complexes) [1] [nM]	ECM AVRG (average KD, hLTBP1 and hLTBP3 complexes) [2] [nM]	Cell AVRG (average KD, hGARP and hLRRC33 complexes) [3] [nM]	ECM AVRG (average KD, hLTBP1 and hLTBP3 complexes) [4] [nM]	(H) G/D (fold bias) [5] [fold]
Ab21 (antibody, V domains shown) VH: EVQLVESGGGLVQPGGSLRLSCAASGFTFSSFSMDWVRQAPGKGLEWVSYISPDASTIYYADSVKGRFTISRDNAKNSLYLQMNSLRAEDTAVYYCARGVLDYGDMLDPWGQGTLVTVSS VL: DIQMTQSPSSLSASVGDRVTITCQASQDITNYLNWYQQKPGKAPKLLIYDASNLETGVPSRFSGSGSGTDFTFTISSLQPEDIATYYCQQADNHPPWTFGGGTKVEIK	0.644	0.246	–	–	–
Ab33 (antibody, IgG4, V domains shown) VH: EVQLVESGGGLVQPGGSLRLSCAASGFTFSSFSMNWVRQAPGKGLEWVSYISPSADTIYYADSVKGRFTISRDNAKNTLYLQMNSLRAEDTAVYYCAHGVLDYGDMLDPWGQGTLVTVSS VL: DIQMTQSPSSLSASVGDRVTITCQASQDITNYLNWYQQKPGKAPKLLIYDASNLETGVPSRFSGSGSGTDFTFTISSLQPEDIATYYCQQADNHPPWTFGGGTKVEIK	0.302	0.145	0.027	0.009	–
Ab22 (antibody, IgG4, V domains shown) VH: EVQLVESGGGLVQPGGSLRLSCAASGFTFGSFSMNWVRQAPGKGLEWVSYIHSDASTIYYADSVKGRFTISRDNAKNSLYLQMNSLRAEDTAVYYCARGVLDYGDMLDPWGQGTLVTVSS VL: DIQMTQSPSSLSASVGDRVTITCQASQDITNYLNWYQQKPGKAPKLLIYDASNLETGVPSRFSGSGSGTDFTFTISSLQPEDIATYYCQQADNHPPWTFGGGTKVEIK	0.695	0.324	0.114	0.042	–
Ab24 (antibody, IgG4, V domains shown) VH: EVQLVESGGGLVQPGRSLRLSCAASGFTFSSFAMYWVRQAPGKGLEWVSYISPDASTIYYADSVKGRFTISRDNAKNSLYLQMNSLRAEDTAVYYCARGVLDYGDMLDPWGQGTLVTVSS VL: DIQMTQSPSSLSASVGDRVTITCQASQDITNYLNWYQQKPGKAPKLLIYDASNLETGVPSRFSGSGSGTDFTFTISSLQPEDIATYYCQQADNHPPWTFGGGTKVEIK	0.537	0.222	0.1	0.023	–
Ab26 (antibody, IgG4, V domains shown) VH: EVQLVESGGGLVQPGGSLRLSCAASGFTFSSFSMDWVRQAPGKGLEWVSYISPDASTIYYADSVKGRFTISRDNAKNTLYLQMNSLRAEDTAVYYCARGVLDYGDMLDPWGQGTLVTVSS VL: DIQMTQSPSSLSASVGDRVTITCQASQDITNYLNWYQQKPGKAPKLLIYDASNLETGVPSRFSGSGSGTDFTFTISSLQPEDIATYYCQQADNHPPWTFGGGTKVEIK	0.492	0.197	0.072	0.026	–
Ab29 (antibody, IgG4, V domains shown) VH: EVQLVESGGGLVQPGRSLRLSCAASGFTFSSFAMNWVRQAPGKGLEWVSYISPDASTIYYAGSVKGRFTISRDNAKNSLYLQMNSLRAEDTAVYYCVRAVLDYGDMLDPWGQGTLVTVSS VL: DIQMTQSPSSLSASVGDRVTITCQASQDITNYLNWYQQKPGKAPKLLIYDASNLETGVPSRFSGSGSGTDFTFTISSLQPEDIATYYCQQADNHPPWTFGGGTKVEIK	0.304	0.155	0.024	0.012	–
Ab30 (antibody, IgG4, V domains shown) VH: EVQLVESGGGLVQPGGSLRLSCAASGFTFSSFSMDWVRQAPGKGLEWVSYISPDASTIYYADSVKGRFTISRDNAKNSLYLQMNSLRAEDTAVYYCARGTLDYGDMLDPWGQGTLVTVSS VL: DIQMTQSPSSLSASVGDRVTITCQASQDITNYLNWYQQKPGKAPKLLIYDASNLETGVPSRFSGSGSGTDFTFTISSLQPEDIATYYCQQADNHPPWTFGGGTKVEIK	0.684	0.296	0.081	0.029	–
Ab31 (antibody, IgG4, V domains shown) VH: EVQLVESGGGLVQPGGSLRLSCAASGFTFSSFSMDWVRQAPGKGLEWVSYISPDASTIYYADSVKGRFTISRDNAKNTLYLQMNSLRAEDTAVYYCARAVLDYGDMLDPWGQGTLVTVSS VL: DIQMTQSPSSLSASVGDRVTITCQASQDITNYLNWYQQKPGKAPKLLIYDASNLETGVPSRFSGSGSGTDFTFTISSLQPEDIATYYCQQADNHPPWTFGGGTKVEIK	0.495	0.208	0.058	0.017	–
Ab32 (antibody, IgG4, V domains shown) VH: EVQLVESGGGLVQPGGSLRLSCAASGFTFSSFSMNWVRQAPGKGLEWVSYISPSADTIYYADSVKGRFTISRDNAKNTLYLQMNSLRAEDTAVYYCARGVWDMGDMLDPWGQGTLVTVSS VL: DIQMTQSPSSLSASVGDRVTITCQASQDITNYLNWYQQKPGKAPKLLIYDASNLETGVPSRFSGSGSGTDFTFTISSLQPEDIATYYCQQADNHPPWTFGGGTKVEIK	0.597	0.242	0.051	0.032	–
Ab4 (antibody, IgG4, V domains shown) VH: EVQLVESGGGLVQPGGSLRLSCAASGFTFSSYSMNWVRQAPGKGLEWVSYISSSSSTIYYADSVKGRFTISRDNAKNSLYLQMNSLRAEDTAVYYCARGVLDYGDMLDPWGQGTLVTVSS VL: DIQMTQSPSSLSASVGDRVTITCQASQDITNYLNWYQQKPGKAPKLLIYDASNLETGVPSRFSGSGSGTDFTFTISSLQPEDIATYYCQQADNHPPWTFGGGTKVEIK	–	–	2.3	5.05	0.42
Ab23 (antibody, V domains shown) VH: EVQLVESGGGLVQPGGSLRLSCAASGFTFSSFSMNWVRQAPGKGLEWVSYISPSADTIYYADSVKGRFTISRDNAKNTLYLQMNSLRAEDTAVYYCARGVLDYGDMLDPWGQGTLVTVSS VL: DIQMTQSPSSLSASVGDRVTITCQASQDITNYLNWYQQKPGKAPKLLIYDASNLETGVPSRFSGSGSGTDFTFTISSLQPEDIATYYCQQADNHPPWTFGGGTKVEIK	0.897	0.443	–	–	–
Ab25 (antibody, V domains shown) VH: EVQLVESGGGLVQPGGSLRLSCAASGFTFGSFSMDWVRQAPGKGLEWVSYISPDASTIYYADSVKGRFTISRDNAKNSLYLQMNSLRAEDTAVYYCARGVLDYGDMLDPWGQGTLVTVSS VL: DIQMTQSPSSLSASVGDRVTITCQASQDITNYLNWYQQKPGKAPKLLIYDASNLETGVPSRFSGSGSGTDFTFTISSLQPEDIATYYCQQADNHPPWTFGGGTKVEIK	0.449	0.184	–	–	–
Ab27 (antibody, V domains shown) VH: EVQLVESGGGLVQPGGSLRLSCAASGFTFSFYAMNWVRQAPGKGLEWVSYISPDASTIYYADSVKGRFTISRDNAKNSLYLQMNSLRAEDTAVYYCARGVLDYGDMLDPWGQGTLVTVSS VL: DIQMTQSPSSLSASVGDRVTITCQASQDITNYLNWYQQKPGKAPKLLIYDASNLETGVPSRFSGSGSGTDFTFTISSLQPEDIATYYCQQADNHPPWTFGGGTKVEIK	0.361	0.208	–	–	–
Ab28 (antibody, V domains shown) VH: EVQLVESGGGLVQPGGSLRLSCAASGFTFSSFSMDWVRQAPGKGLEWVSYISPDASTIYYADSVKGRFTISRDNAKNSLYLQMNSLRAEDTAVYYCVRGVLDYGDMLDPWGQGTLVTVSS VL: DIQMTQSPSSLSASVGDRVTITCQASQDITNYLNWYQQKPGKAPKLLIYDASNLETGVPSRFSGSGSGTDFTFTISSLQPEDIATYYCQQADNHPPWTFGGGTKVEIK	0.603	0.328	–	–	–
